Laboratory results: publication PMC4980424, “Glucansucrase Gtf180-ΔN of Lactobacillus reuteri 180: enzyme and reaction engineering for improved glycosylation of non-carbohydrate molecules” (Applied Microbiology and Biotechnology, 2016)
Substitutions are numbered along the chain they refer to. In names and notes the source's numbering stands.

Experiments:
[1] = substrate: OC[C@H]1O[C@H](Oc2ccccc2O)[C@H](O)[C@@H](O)[C@@H]1O; assay: initial rates by TLC densitometry; Michaelis-Menten fit; type: biochemical, Limosilactobacillus reuteri; conditions: acceptor substrate, 1000 mM sucrose as donor, pH 4.7, 37 °C
Excerpt: initial rates by TLC densitometry; Michaelis-Menten fit on Gtf180-ΔN

[2] = substrate: Oc1ccccc1O; assay: initial rates of catechol-G1 formation by TLC densitometry; Michaelis-Menten fit; type: biochemical, Limosilactobacillus reuteri; conditions: acceptor substrate, 1000 mM sucrose as donor, pH 4.7, 37 °C
Excerpt: initial rates of catechol-G1 formation by TLC densitometry; Michaelis-Menten fit on Gtf180-ΔN

B1: Gtf180-ΔN (Limosilactobacillus reuteri) (protein)
chain: INGQQYYIDPTTGQPRKNFLLQNGNDWIYFDKDTGAGTNALKLQFDKGTISADEQYRRGNEAYSYDDKSIENVNGYLTADTWYRPKQILKDGTTWTDSKETDMRPILMVWWPNTVTQAYYLNYMKQYGNLLPASLPSFSTDADSAELNHYSELVQQNIEKRISETGSTDWLRTLMHEFVTKNSMWNKDSENVDYGGLQLQGGFLKYVNSDLTKYANSDWRLMNRTATNIDGKNYGGAEFLLANDIDNSNPVVQAEELNWLYYLMNFGTITGNNPEANFDGIRVDAVDNVDVDLLSIARDYFNAAYNMEQSDASANKHINILEDWGWDDPAYVNKIGNPQLTMDDRLRNAIMDTLSGAPDKNQALNKLITQSLVNRANDNTENAVIPSYNFVRAHDSNAQDQIRQAIQAATGKPYGEFNLDDEKKGMEAYINDQNSTNKKWNLYNMPSAYTILLTNKDSVPRVYYGDLYQDGGQYMEHKTRYFDTITNLLKTRVKYVAGGQTMSVDKNGILTNVRFGKGAMNATDTGTDETRTEGIGVVISNNTNLKLNDGESVVLHMGAAHKNQKYRAVILTTEDGVKNYTNDTDAPVAYTDANGDLHFTNTNLDGQQYTAVRGYANPDVTGYLAVWVPAGAADDQDARTAPSDEAHTTKTAYRSNAALDSNVIYEGFSNFIYWPTTESERTNVRIAQNADLFKSWGITTFELAPQYNSSKDGTFLDSIIDNGYAFTDRYDLGMSTPNKYGSDEDLRNALQALHKAGLQAIADWVPDQIYNLPGKEAVTVTRSDDHGTTWEVSPIKNVVYITNTIGGGEYQKKYGGEFLDTLQKEYPQLFSQVYPVTQTTIDPSVKIKEWSAKYFNGTNILHRGAGYVLRSNDGKYYNLGTSTQQFLPSQLSVQDNEGYGFVKEGNNYHYYDENKQMVKDAFIQDSVGNWYYFDKNGNMVANQSPVEISSNGASGTYLFLNNGTSFRSGLVKTDAGTYYYDGDGRMVRNQTVSDGAMTYVLDENGKLVSESFDSSATEAHPLKPGDLNGQK
notes: N-terminally truncated Gtf180 (ΔN)
Km [1]: 88.8 ± 17.1 mM | kcat [1]: 863 ± 39.3 s⁻¹ | kcat/Km [1]: 10200 M⁻¹ s⁻¹

B2: Gtf180-ΔN (Limosilactobacillus reuteri; N1029M) (protein)
chain: B1 chain with N288M
notes: as for B1
Km [2]: 58.9 ± 6.4 mM | kcat [2]: 449 ± 4.9 s⁻¹ | kcat/Km [2]: 7700 M⁻¹ s⁻¹

B3: Gtf180-ΔN (Limosilactobacillus reuteri; L938F) (protein)
chain: B1 chain with L197F
notes: as for B1
Km [2]: 85.5 ± 4.0 mM | kcat [2]: 1870 ± 74.7 s⁻¹ | kcat/Km [2]: 21900 M⁻¹ s⁻¹ | Km [1]: 91.1 ± 7.3 mM | kcat [1]: 576 ± 44 s⁻¹ | kcat/Km [1]: 6300 M⁻¹ s⁻¹

B4: Gtf180-ΔN (Limosilactobacillus reuteri; L981A) (protein)
chain: B1 chain with L240A
notes: as for B1
Km [2]: 11.0 ± 1.3 mM | kcat [2]: 203 ± 8.1 s⁻¹ | kcat/Km [2]: 18700 M⁻¹ s⁻¹
